Measured values from paper PMC10020961, “Structural Elucidation of Ivermectin Binding to α7nAChR and the Induced Channel Desensitization” (ACS Chemical Neuroscience, 2023).

Tests used:
[1] = target: full-length human α7 nicotinic acetylcholine receptor (human) (UniProt P36544); test: SEC; S200 10/300 column, 20 mM HEPES pH 7.4, 300 mM NaCl, 0.2% DPC or 0.1% LDAO; pentamer fraction isolated
[2] = target: the molecule itself; test: NMR structure (NMR and ESR restraints with Rosetta comparative modelling); α7nAChR TMD + ICD in LDAO micelles, pH 4.7, 25 mM NaCl, 318 K, with ivermectin; fivefold symmetry applied in the calculations

Chain of full-length human α7 nicotinic acetylcholine receptor (P36544 23-502 limits assumed): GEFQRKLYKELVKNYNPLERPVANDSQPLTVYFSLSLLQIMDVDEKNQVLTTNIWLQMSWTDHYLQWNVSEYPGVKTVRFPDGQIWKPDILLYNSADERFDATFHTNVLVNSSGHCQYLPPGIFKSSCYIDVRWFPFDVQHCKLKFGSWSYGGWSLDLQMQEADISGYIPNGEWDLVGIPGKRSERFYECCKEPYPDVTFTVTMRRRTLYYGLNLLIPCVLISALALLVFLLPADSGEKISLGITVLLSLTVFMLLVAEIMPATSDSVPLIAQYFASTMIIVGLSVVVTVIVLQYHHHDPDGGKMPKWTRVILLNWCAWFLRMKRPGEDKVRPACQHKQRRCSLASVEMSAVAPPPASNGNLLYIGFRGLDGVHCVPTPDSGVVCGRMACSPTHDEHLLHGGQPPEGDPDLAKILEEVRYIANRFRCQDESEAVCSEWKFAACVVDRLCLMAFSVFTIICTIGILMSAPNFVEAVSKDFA

Molecule	stoichiometry N [1]	stoichiometry N [2]
full-length human α7 nicotinic acetylcholine receptor (from UniProt P36544 23-502)	5	–
human α7 nicotinic acetylcholine receptor construct containing the transmembrane and intracellular domains (α7nAChR TMD + ICD) (domain or fragment, α7 nicotinic acetylcholine receptor, human; construct with the transmembrane domain (TMD) and intracellular domain (ICD), without the extracellular domain; also called α7 TMD + ICD; α7 TMD-ICD; source: E. coli Rosetta 2(DE3) pLysS, purified (NiNTA, SEC pentamer fraction), in LDAO micelles) LYYGLNLLIPCVLISALALLVFLLPADSGEKISLGITVLLSLTVFMLLVAEIMPATSDSVPLIAQYFASTMIIVGLSVVVTVIVLQYHHHDPDGGKMPKWTRVILLNWCAWFLRMKRPGEDKVRPACQHKQRRCSLASVEMSAVAPPPASNGNLLYIGFRGLDGVHCVPTPDSGVVCGRMACSPTHDEHLLHGGQPPEGDPDLAKILEEVRYIANRFRCQDESEAVCSEWKFAACVVDRLCLMAFSVFTIICTIGILMSAPNFVE	–	5
